Measurements published in publication PMC4148960.

Columns and labels:
[1] = target: MYC-Grg5 (in COS-7 cells) (UniProt P63002)
[2] = target: GST-fused Grg5 (UniProt P63002); experiment: pull-down; GST-Grg1 or GST-Grg5 from lysed BL21 E. coli incubated with S^35-labelled in vitro translated Sox2 proteins; pulled down with Glutathione-sepharose 4B beads; PAGE gel on a phosphorimager
[3] = target: GST-fused Grg1 (UniProt Q62440); experiment: as above
GST-fused Grg1, sequence (Q62440 whole entry, the tested form may be a part): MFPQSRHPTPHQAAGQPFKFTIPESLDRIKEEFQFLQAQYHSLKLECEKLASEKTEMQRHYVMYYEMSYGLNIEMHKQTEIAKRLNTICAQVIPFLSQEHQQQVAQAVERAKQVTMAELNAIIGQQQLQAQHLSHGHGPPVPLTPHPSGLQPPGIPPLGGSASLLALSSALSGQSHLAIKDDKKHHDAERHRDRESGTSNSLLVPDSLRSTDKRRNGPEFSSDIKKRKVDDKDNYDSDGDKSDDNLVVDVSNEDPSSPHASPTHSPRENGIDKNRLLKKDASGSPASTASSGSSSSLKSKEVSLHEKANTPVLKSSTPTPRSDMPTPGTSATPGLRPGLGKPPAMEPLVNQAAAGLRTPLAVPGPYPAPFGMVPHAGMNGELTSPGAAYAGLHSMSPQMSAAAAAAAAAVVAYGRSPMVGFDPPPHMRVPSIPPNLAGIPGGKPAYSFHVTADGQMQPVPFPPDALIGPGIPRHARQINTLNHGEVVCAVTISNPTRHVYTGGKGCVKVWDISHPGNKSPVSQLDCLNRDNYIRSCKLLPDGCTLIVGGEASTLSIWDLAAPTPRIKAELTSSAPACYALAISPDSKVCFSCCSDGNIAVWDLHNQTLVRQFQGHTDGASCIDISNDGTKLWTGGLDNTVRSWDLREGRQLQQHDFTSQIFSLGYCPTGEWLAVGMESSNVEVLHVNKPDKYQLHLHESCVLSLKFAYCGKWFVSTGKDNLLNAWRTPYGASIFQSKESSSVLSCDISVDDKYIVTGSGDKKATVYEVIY

radiolabelled Sox2^M203–209 (in vitro translated), sequence (P48432 whole entry): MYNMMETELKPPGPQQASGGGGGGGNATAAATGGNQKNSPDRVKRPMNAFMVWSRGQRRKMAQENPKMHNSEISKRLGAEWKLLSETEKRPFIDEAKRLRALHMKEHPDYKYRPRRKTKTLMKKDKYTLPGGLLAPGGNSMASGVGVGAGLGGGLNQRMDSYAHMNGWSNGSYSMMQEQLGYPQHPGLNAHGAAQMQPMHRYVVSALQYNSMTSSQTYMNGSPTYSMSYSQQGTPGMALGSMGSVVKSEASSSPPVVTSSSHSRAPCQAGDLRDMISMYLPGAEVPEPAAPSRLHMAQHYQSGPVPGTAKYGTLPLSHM
GST-fused Grg5, sequence (P63002 whole entry, the tested form may be a part): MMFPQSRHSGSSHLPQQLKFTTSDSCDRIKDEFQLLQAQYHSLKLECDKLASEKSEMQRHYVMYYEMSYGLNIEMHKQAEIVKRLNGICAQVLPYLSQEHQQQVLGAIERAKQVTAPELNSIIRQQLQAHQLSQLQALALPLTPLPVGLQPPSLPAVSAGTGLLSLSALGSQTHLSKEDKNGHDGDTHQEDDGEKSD
MYC-Grg5 (in COS-7 cells), sequence (P63002 whole entry, the tested form may be a part): as above
Sox2^M203–209 mutant (transfected, COS-7 cells), sequence (P48432 whole entry, change not shown): as the sequence (P48432 whole entry) above

| subcellular translocation assay: proportion of co-transfected COS-7 cells with altered distribution of MYC-Grg5, mutant against WT Sox2 [1] [%] | fold decrease in the amount pulled down against WT Sox2 [2] [fold] | fold decrease in the amount pulled down against WT Sox2 [3] [fold] | Substance |
| --- | --- | --- | --- |
| 50 |  |  | Sox2^M203–209 mutant (transfected, COS-7 cells) (from UniProt P48432 1-319) (natural protein) |
|  | 4 | 4 | radiolabelled Sox2^M203–209 (in vitro translated) (from UniProt P48432 1-319) (natural protein) |
